According to the supplement of paper PMC12042874:
± gives the uncertainty stated by the source.

Assay: amyloid nucleation score (Sup35N fusion, yeast selection) (log enrichment); library NNK1; higher = more nucleation; inactive = no reads after selection
Procedure, shortened: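 Sup35N was fused to peptides of 20 random codons and expressed in psi-negative yeast, which were induced with 100 μM copper sulfate for 24 hours and then grown on medium lacking adenine and uracil for 7 days at 30°C. Plasmid inserts from input and output were sequenced on Illumina. The nucleation score is the DiMSum log enrichment of output over input reads, centred on the mode score of non-aggregating sequences. Sequences with under 100 input reads were left out, and random libraries had three technical output replicates.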

Point of comparison: LTPRRYIWTYLSWGDAGLEL, amyloid nucleation score 1.02 ± 0.9. Against it:
- GGTNAGRCMYGGRDI — within error, 0.754 ± 0.7
- IWWVDGVKTGSF — within error, 1.21 ± 0.76
- EVGRSCWLGSL — within error, -0.344 ± 0.68
- FMDTAMTSFGSLSW — within error, -0.317 ± 0.55
- LGLMTFFVWFNWG — lower, -1.43 ± 1
- NWVAYIPKDNVWVVRGKLKG — within error, 0.753 ± 0.53
- DLFCFELVDHTLLLGWTTVQ — lower, -0.564 ± 0.66
- SFKGYVSWVGSPHRAVG — within error, 0.425 ± 0.86
- YNPNGLTMGCGHKYTVEHTT — within error, 0.128 ± 0.47
- VSVQMAGIF — lower, -0.863 ± 0.54
- SWCFN — within error, 1.34 ± 0.59
- FDITRGRSTSYLIERRRTWG — within error, 0.79 ± 0.82
- NEWKSLSINEMRGSMTINNS — within error, 1.44 ± 0.12
- CTSLDFSNKVRCVMGQSVLL — within error, -0.606 ± 0.97
- VIGVRAQYLCRHTLSVRYRK — within error, 1.67 ± 0.4
- GISFY — within error, 1.28 ± 0.9
- NSRKSAGHPSLESGSLLCYA — within error, -0.041 ± 0.5
- DHPCTTWVLPSYGPEDPLPC — within error, 0.175 ± 0.35
- VNASELEYKFTLLVQWMIRR — within error, 1.31 ± 0.32
- SLFAQKS — lower, -0.273 ± 0.32
- LCCRLMTTICPKLCSVLLMS — within error, 0.217 ± 0.28
- AIVELLSWSQVTCALWGSIT — within error, 0.344 ± 0.69
- LGIFSNIYGFV — within error, 0.277 ± 0.45
- SDRGSKPMSVYNLRC — within error, 0.305 ± 0.75
- TGMWPFNRRCITIRTVSRNL — within error, 0.467 ± 0.93
- WYWELGLALKRWRYAANFGS — within error, -0.19 ± 0.96
- QPFTWVLQKNTRT — within error, 0.714 ± 0.58
- IGWFHHFHHATLHRAISVFL — within error, 0.633 ± 0.42
- ALMNNGWYILSNFPYCMVIY — higher, 5.4 ± 0.064
- LWSLVCSELCWDVLFNALPG — lower, -1.03 ± 0.71
- RHADIWSDFPR — within error, 1.53 ± 0.7
- FPESNKLMV — within error, 1.06 ± 0.65
- DSQVL — within error, 1.25 ± 0.56
- YSGHWPWMQ — lower, -1.17 ± 0.74
- RNLYQFM — within error, 0.203 ± 0.27
- MVAIRWYRMGLDDMNSGTVN — within error, 0.094 ± 0.27
- SGMVLNNQSS — lower, -0.763 ± 0.79
- VWTGCVHCRRWDSGSLLNSW — within error, -0.036 ± 0.91
- GQIIMCAARLWLGKGCVS — within error, -0.588 ± 1
- WAMDKGWKVNHCNEAPMIHC — within error, -0.053 ± 0.37
- SLRDACFGVNI — within error, -0.091 ± 0.29
- WSMMCKWMNVERFIYMLKSC — within error, 0.394 ± 1.1
- GCSTYMVLMVGLGGGMLGGF — within error, 1.32 ± 0.26
- FHNVFCFSYFT — higher, 7.21 ± 0.078
- KGCAIGRRAINSCYQSGWIW — within error, 1.6 ± 0.57
- YVGRNLWK — within error, 0.402 ± 0.47
- MRYVMTFFFHSYKA — lower, -1.15 ± 0.91
- TLVCNGQISTNLYYVKVGSS — higher, 2.83 ± 0.12
- TSLPTAVWLKSARQWVEYGL — within error, 1.18 ± 0.54
- ECFDANIWFWSCPMVHYG — within error, 0.904 ± 0.19
- DYKFRDRL — within error, 0.364 ± 0.32
- AVFGRLMVVDVYVSRSALTS — within error, 0.043 ± 0.94
- SLRYSLCRL — within error, 0.328 ± 0.24

For CELRTD, the amyloid nucleation score was “inactive”.
In the case of SHCCR, the amyloid nucleation score is reported as “inactive”.
For CLFRCVVEPLVIGYTKCAS, the amyloid nucleation score was “inactive”.
For INLCAFGLPLVKVLHWLLYL, the amyloid nucleation score was “inactive”.
In the case of CVFYISINCYFIWVRLDWVY, the amyloid nucleation score is reported as “inactive”.
In the case of TLDYVSYWGFTIWYAFMMVL, the amyloid nucleation score is reported as “inactive”.
In the case of IYNQESVEYQGTMYLHFRYW, the amyloid nucleation score is reported as “inactive”.
For SVARCASPMQSLSLRGRPEG, the amyloid nucleation score was “inactive”.
With DFFRFC the amyloid nucleation score was “inactive”.
For LFRRRKITTVYIDKNAMLTS, the amyloid nucleation score was “inactive”.
